From publication PMC6000670 (2018) come the findings set out here.

This test concerns the target Hsp90 (Saccharomyces cerevisiae, UniProt P02829). Description: ITC. A general note: Isothermal titration calorimetry measures the heat released or taken up as one component is titrated into another.

Sequence of Hsp90 (P02829 whole entry): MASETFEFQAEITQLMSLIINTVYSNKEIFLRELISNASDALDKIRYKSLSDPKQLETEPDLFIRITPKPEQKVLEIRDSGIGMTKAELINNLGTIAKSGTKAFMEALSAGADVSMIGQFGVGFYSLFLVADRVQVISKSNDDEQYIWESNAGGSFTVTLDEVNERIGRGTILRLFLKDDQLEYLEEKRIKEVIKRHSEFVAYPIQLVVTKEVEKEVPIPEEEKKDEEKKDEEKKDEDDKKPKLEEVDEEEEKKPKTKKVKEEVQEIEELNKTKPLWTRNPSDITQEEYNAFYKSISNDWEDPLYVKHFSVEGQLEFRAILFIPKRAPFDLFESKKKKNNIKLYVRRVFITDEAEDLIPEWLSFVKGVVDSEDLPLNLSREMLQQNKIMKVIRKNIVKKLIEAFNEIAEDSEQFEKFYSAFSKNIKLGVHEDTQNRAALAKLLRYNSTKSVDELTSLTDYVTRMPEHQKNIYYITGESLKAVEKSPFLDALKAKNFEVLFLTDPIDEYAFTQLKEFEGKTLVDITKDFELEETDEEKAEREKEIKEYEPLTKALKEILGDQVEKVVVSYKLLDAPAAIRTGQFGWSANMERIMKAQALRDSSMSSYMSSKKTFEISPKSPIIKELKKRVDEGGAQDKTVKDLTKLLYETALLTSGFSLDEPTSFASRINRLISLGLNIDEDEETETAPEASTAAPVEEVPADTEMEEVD

B1: Sti1 (protein)
chain: MSLTADEYKQQGNAAFTAKDYDKAIELFTKAIEVSETPNHVLYSNRSACYTSLKKFSDALNDANECVKINPSWSKGYNRLGAAHLGLGDLDEAESNYKKALELDASNKAAKEGLDQVHRTQQARQAQPDLGLTQLFADPNLIENLKKNPKTSEMMKDPQLVAKLIGYKQNPQAIGQDLFTDPRLMTIMATLMGVDLNMDDINQSNSMPKEPETSKSTEQKKDAEPQSDSTTSKENSSKAPQKEESKESEPMEVDEDDSKIEADKEKAEGNKFYKARQFDEAIEHYNKAWELHKDITYLNNRAAAEYEKGEYETAISTLNDAVEQGREMRADYKVISKSFARIGNAYHKLGDLKKTIEYYQKSLTEHRTADILTKLRNAEKELKKAEAEAYVNPEKAEEARLEGKEYFTKSDWPNAVKAYTEMIKRAPEDARGYSNRAAALAKLMSFPEAIADCNKAIEKDPNFVRAYIRKATAQIAVKEYASALETLDAARTKDAEVNNGSSAREIDQLYYKASQQRFQPGTSNETPEETYQRAMKDPEVAAIMQDPVMQSILQQAQQNPAALQEHMKNPEVFKKIQTLIAAGIIRTGR
modifications: Hsp90 in complex with LA1011 (1 mM)
The term Kd denotes the free concentration of one partner at which half of the binding sites on the other are occupied at equilibrium, for simple one-to-one binding. Read a low Kd as a tighter complex. B1 displayed a dissociation constant Kd of 320 nM.
